According to US20130203167:

Target: WDR5-RbBP5-Ash2L subcomplex (UniProt P61964)

MLL^3745(R3765A)
H3K4 dimethylation activity of the MLL1 core complex (MALDI-TOF mass spectrometry): a loss of H3K4 dimethylation activity of the MLL1 core complex when Arg-3765 of the MLL1 component is replaced by an alanine
